Assay results taken from patent US20260374861 (published 2026).

Assays:
huILT4 protein [1] = biological target: huILT4 protein (human); experiment: competition, ELISA, blocking SEMA4A
[2] = biological target: human ILT4 (cell surface) (human); experiment: FACS
monkey ILT4-ECD = monkey ILT4-ECD (cynomolgus); experiment: ELISA
human ILT4-ECD = human ILT4-ECD (human); experiment: ELISA
huILT4 protein [3] = biological target: huILT4 protein (human); experiment: competition, FACS, blocking HLA-G

Sequence of human ILT4 (cell surface) (human) (chain, as listed by the source): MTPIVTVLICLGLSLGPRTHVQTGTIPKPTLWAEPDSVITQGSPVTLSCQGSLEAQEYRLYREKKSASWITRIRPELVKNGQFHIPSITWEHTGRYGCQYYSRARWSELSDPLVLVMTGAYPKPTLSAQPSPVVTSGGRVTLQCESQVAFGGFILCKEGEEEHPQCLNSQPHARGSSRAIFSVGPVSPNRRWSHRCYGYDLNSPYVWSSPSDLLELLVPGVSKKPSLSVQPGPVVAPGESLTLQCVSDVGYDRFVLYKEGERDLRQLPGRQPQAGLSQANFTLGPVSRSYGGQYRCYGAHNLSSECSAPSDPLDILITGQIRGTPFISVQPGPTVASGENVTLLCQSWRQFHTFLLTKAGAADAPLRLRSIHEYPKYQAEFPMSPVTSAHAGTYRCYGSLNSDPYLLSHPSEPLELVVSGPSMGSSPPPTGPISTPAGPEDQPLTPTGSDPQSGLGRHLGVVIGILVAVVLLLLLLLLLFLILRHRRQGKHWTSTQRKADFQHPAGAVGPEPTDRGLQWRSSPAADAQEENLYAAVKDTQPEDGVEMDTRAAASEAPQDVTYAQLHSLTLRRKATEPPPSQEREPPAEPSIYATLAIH
Sequence of monkey ILT4-ECD (cynomolgus) (chain, as listed by the source): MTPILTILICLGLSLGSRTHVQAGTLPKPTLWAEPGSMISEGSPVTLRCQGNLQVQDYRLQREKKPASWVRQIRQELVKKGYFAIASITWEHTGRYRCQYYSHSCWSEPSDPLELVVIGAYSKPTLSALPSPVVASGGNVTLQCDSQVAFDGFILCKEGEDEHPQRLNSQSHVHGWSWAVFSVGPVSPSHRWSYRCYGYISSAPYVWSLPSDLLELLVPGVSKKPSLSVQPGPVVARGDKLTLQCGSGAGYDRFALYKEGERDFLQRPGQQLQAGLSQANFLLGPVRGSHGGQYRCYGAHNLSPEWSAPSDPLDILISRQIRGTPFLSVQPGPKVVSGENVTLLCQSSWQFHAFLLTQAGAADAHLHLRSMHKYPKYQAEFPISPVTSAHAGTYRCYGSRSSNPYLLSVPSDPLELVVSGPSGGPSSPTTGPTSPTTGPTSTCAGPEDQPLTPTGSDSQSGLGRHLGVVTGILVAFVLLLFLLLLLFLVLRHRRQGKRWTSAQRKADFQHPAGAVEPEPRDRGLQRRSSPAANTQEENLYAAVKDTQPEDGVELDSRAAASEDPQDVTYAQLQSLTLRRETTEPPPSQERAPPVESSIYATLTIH
Sequence of human ILT4-ECD (human) (chain, as listed by the source): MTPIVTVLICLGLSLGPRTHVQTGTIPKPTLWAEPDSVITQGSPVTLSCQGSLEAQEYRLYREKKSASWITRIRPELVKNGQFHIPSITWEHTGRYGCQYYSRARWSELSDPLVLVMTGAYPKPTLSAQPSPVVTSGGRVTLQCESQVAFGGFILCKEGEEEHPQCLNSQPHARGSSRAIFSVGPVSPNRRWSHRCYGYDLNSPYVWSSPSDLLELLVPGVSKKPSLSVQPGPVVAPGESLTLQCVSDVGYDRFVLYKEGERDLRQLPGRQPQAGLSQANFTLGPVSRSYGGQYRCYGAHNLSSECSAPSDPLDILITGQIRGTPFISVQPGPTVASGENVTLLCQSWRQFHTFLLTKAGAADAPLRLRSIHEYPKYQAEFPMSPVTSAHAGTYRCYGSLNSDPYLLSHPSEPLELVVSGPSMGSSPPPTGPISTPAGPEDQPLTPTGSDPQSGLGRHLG

Binder	IC50 (huILT4 protein [1]) [nM]	EC50 [2] [nM]	EC50 (monkey ILT4-ECD) [nM]	EC50 (human ILT4-ECD) [nM]	IC50 (huILT4 protein [3]) [nM]
PR301366 (antibody, V domains shown) VH: EVQLLESGGGLVQPGGSLRLSCAASGFTFSNYAMNWVRQAPGKGLEWVSVISVSGGSTYYADSVKGRFTISRDNSKNTLYLQMNSLRAEDTAVYYCAKDYYYDSGSYYDSFFDYWGQGTLVTVSS VL: not shown	34.8	0.362	0.401	0.014	3.99
PR302927 (antibody, V domains shown) VH: EVQLLESGGGLVQPGGSLRLSCAASGFTFSSYAMSWVRQAPGKGLEWVSTINHIGDSTYYADSVKGRFTISRDNSKNTLYLQMNSLRAEDTAVYYCAKDQWFGVFDYWGQGTLVTVSS VL: not shown	61.5			0.025	10.6
PR302259-1 (antibody, V domains shown) VH: EVQLLESGGGLVQPGGSLRLSCAVSGFTFSSYAMSWVRQAPGKGLEWVSAISDNAGSTYYADSVKGRFTISRDNSKNTLHLQMNSLRAEDTAVYSCAKERQWLVLGVMDAWGQGASVTVSS VL: not shown		0.262		0.012	
PR302259 (antibody, V domains shown) VH: EVQLLESGGGLVQPGGSLRLSCAVSGFTFSSYAMSWVRQAPGKGLEWVSAISDNAGSTYYADSVKGRFTISRDNSKNTLHLQMNSLRAEDTAVYSCAKERQWLVLGVMDAWGQGASVTVSS VL: not shown	34.1				3.4
PR302239-1 (antibody, V domains shown) VH: QVQLQESGPGLVKPSETLSLTCTVSGDSISSYYWSWIRQPPGKGLEWIGFIYYSGSTNYNPSLKSRVTISVDTSKNQFSLKLTSVTAADTAVYYCANQLWFGESPFDYWGQGTLVTVSS VL: not shown		0.931		0.036	
PR302949 (antibody, V domains shown) VH: EVQLLESGGGLVQPGGSLRLSCAASGFTFSSYAMSWVRQAPGKGLEWVSSISGSDFSTYYADSVKGRFTISRDTSKNTLYLQMNSLRAEDTAVYYCAKDRQWLVSSFDFWGQGALVTVSS VL: DIQMTQSPSSLSASVGDRVTITCQASQDISNYLNWYQQKPGKAPKLLIYDASNLETGVPSRFSGSGSGTDFTFTISSLQPEDIATYYCQQYDNLITFGQGTRLEIK	47.9			0.023	8.86
PR302951 (antibody, V domains shown) VH: EVQLLESGGGLVQPGGSLRLSCAASRFTFSTYAMSWVRQAPGKGLEWVSSISGSGFNTYYADSVKGRFTISSDSSKNTLYLQMNSLRAEDTAVYYCAKDRQWLVSSFDYWGQGTLVTVSS VL: DIQMTQSPSSLSASVGDRVTITCQASQDISNYLNWYQQKPGKAPKLLIYDASNLETGVPSRFSGSGSGTDFTFTISSLQPEDIATYYCQQYDNLITFGQGTRLEIK	52.9			0.015	8.6

Other lines, results leading:

IC50 (huILT4 protein [1]) [nM]	EC50 [2] [nM]	EC50 (monkey ILT4-ECD) [nM]	EC50 (human ILT4-ECD) [nM]	IC50 (huILT4 protein [3]) [nM]	Binder
40.9	0.345		0.021	5.33	PR303413 (antibody, V domains shown) VH: QVQLVESGGGVVQPGRSLRLSCAASGFTFSSYGMHWVRQAPGKGLGWVAGIWYAGSNEYYVDSVKGRFIISRDNSKNTLYLQMNSLRAEDTAVYYCARDQGWGTMDAWGQGASVTVSS VL: not shown
				6.49	PR302239 (antibody, V domains shown) VH: QVQLQESGPGLVKPSETLSLTCTVSGDSISSYYWSWIRQPPGKGLEWIGFIYYSGSTNYNPSLKSRVTISVDTSKNQFSLKLTSVTAADTAVYYCANQLWFGESPFDYWGQGTLVTVSS VL: not shown
65			0.056	9.34	PR302950 (antibody, V domains shown) VH: QVQLQESGPGLVKPSGTLSLTCAVSGGSISSSNWWSWVRQPPGKGLEWIGEVYHSGSTNYNPSLKSRVTISVDKSQNQFSLKLTSVTAADTAVYYCARVTGNKDYYYYDLDVWGQGTTVTVSS VL: not shown
		0.008	0.032		PR302261 (antibody, V domains shown) VH: EVQLLESGGGLVQSGGSLRLSCAASGFTFSSYAMSWVRQAPGKGLGWVSTISGSGGSAYYADSVKGRFTVSRDNSKKTLYLQMNSLRAEDTAVYFCAILSGDDAFDIWGQGTMVTVSS VL: DVVMTQSPLSLPVTPGEPASISCRSSQSLLRGNGYNYLDWYLQKPGQSPQLLIYLGSNRASGVPDRFSGSGSGTDFTLKISRVEAEDVGIFYCMQALQSPLTFGGGTKVEIK
		0.047	0.012		PR302934 (antibody, V domains shown) VH: QVQLQQWGAGLLKPSETLSLTCAVYGGSFSGYYWSWIRQTLGKGLEWIGEVSHSGGTNYNPSLKSRVTISVDTSKNQFSLKLSSVTAADTAVYYCARSPYYGDYMYVFDIWGQGTMVTVSS VL: not shown
		0.935	0.026		PR302264 (antibody, V domains shown) VH: QVQLQQWGAGLLKPSETLSLTCAVYGGSLSGYYWSWIRQPPGKGLEWIGEINHSGGTNYNPSLKSRVTISVPTSKNQFSLKLTSVTAADTAVYYCARGQQQLDWYFDLWGRGTLVTVSS VL: EIVMTQSPATLSVSPGERATLSCRASQNIYSHLVWYQQKPGQAPRLLIYGASTRATGIPARFSGSGSGTEFTLTITSLQSEDFTVYYCQQYNDWPPITFGQGTRLEIR
			0.029		PR302702 (antibody, V domains shown) VH: EVQLLESGGGLVQPGGSLRLSCAASGFTFSTYAMTWVRQAPGKGLEWVSSISGSDFNTYYADSVKGRFTISRDISKNTLYLQMNSLRAEDTAVYYCAKDQEWLVRSFHHWGQGTLVTVSS VL: DIQMTQFPSSLFAFVGDRVTITCQASQDISNYLNWYQQKAGKAPKLLINDASNLETGVPSRFSGSGFGTDFTFTISSLQPEDFATYYCQQYENLPTFGGGTKVEIK
48.1	1.88		0.015		PR302282 (antibody, V domains shown) VH: QVQLVESGGTVVQSGRSLRLSCAASGFTFSSYGMHWVRQAPGKGLEWVAGMWYDGNYKYYADSVKGRFTISRDNSKNTLSLQMNSLRAEDTAVYYCARDSPIGVFDYWGQGTLVTVSS VL: DIQMTQSPSSLSASVGDRVTITCQASQDISNYLNWYQQKPGKAPKLLIYDASNLETGVPSRFSGSGSGTDFTFTISSLQPEDIATYYCQQYDNLITFGQGTRLEIK
